# In the RNAGym collection of RNA variant scans (doi:10.1073/pnas.2313332121):
# B1: TPR t1 (parent)
# chain: GACCAAUCUGCCCUCAGAGCUCGAGAACAUCUUCGGAUGCAGAGGAGGCAGGCUUCGGUGGCGCGAUAGCGCCAACGUCCUCAACCUCCAAUGCAUCCCACCACAUGAUGAUGCCUGAAGAGCCUUGGUUUUUUG
# Variants of: B1
# Assay: polymerase ribozyme fitness, log enrichment relative to wild type (log ratio); higher = more active; in vitro selection for triplet polymerase activity
# Method in brief: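 Each subunit of a heterodimeric triplet polymerase ribozyme was mutagenized into a library by PCR, transcribed, and subjected to one round of in vitro selection, run in triplicate. Libraries were annealed with a biotinylated primer, the partner subunit and triplets, incubated frozen at −7 °C, and extended constructs were gel-excised, captured on streptavidin beads and recovered by RT-PCR. Input and output libraries were sequenced on Illumina, keeping genotypes with ≥10 input reads and ≥1 read per output. Fitness is log base 2 of genotype enrichment divided by wild-type enrichment, from inverse-variance-weighted replicate averages.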
row,Variant,polymerase ribozyme fitness (log ratio)
1,A111C A119U U131C,0.0159
2,A111C C114G,-3.93
3,A111C G113U,-3.68
4,A111C G117C,-4.16
5,A111C G122C,-1.39
6,A111C G127A,-2.45
7,A111C U133C,1.26
8,A111G,0.509
9,A111G G113C,-2.06
10,A111G G117C,-4.52
11,A111G G120A,-0.416
12,A111G G120A G122A,-2.07
13,A111G G122U U129C,-5.05
14,A111U,-2.62
15,A111U U112G G122A,-2.25
16,U112A A118U G135A,1.33
17,U112A A119G,1.9
18,U112A C114A U133A,-1.04
19,U112A G113A,-0.782
20,U112A G120C,-0.182
21,U112A U126A,1.04
22,U112C A118U,1.35
23,U112C A121G,2.63
24,U112C C124G,1.79

row,Variant,polymerase ribozyme fitness (log ratio)
1,U112C C124G G128A,-0.155
2,U112C G117A,-0.498
3,U112G C123A,-2
4,U112G G113A U125C,-2.43
5,U112G G117A,-2.9
6,U112G G117U,-1.25
7,U112G G127A,-1.12
8,U112G G135U,-1.01
9,U112G U116A G117U A121G,0.651
10,U112G U116G,-2.14
11,U112G U130A,0.613
12,G113A C114A U125A U133A,-3.52
13,G113A C123G C124A,-3.66
14,G113A G122C,-3.36
15,G113A G128C,-2.85
16,G113A U125C,-1.17
17,G113A U126G,-3.39
18,G113A U130A,-2.33
19,G113A U130C,-1.16
20,G113A U131A,-0.84
21,G113C C124U,-2.58
22,G113C G120A,-2.39
23,G113C G122A G135U,-4.5
24,G113C U126C,-2.46

row,Variant,polymerase ribozyme fitness (log ratio)
1,G113U A119C,-5.27
2,G113U A119G,-1.66
3,G113U C115A,-4.42
4,G113U C124A,-1.53
5,G113U G120A,-2.2
6,G113U G120A U132A,-3.83
7,G113U U116A,-4.64
8,G113U U129G,-5.28
9,G113U U133A,-3.57
10,C114A A119U,-3.28
11,C114A U131C,-1.66
12,C114A U133A G135C,-1.08
13,C114G G117A,-5.27
14,C114G G117U,-3.8
15,C114G G120A G135A,-4.92
16,C114G G128U U129A,-5.24
17,C114U A118G,-2.12
18,C114U C124A,-1.04
19,C114U G122A,-2.83
20,C114U G127A,-3.37
21,C114U U129C,-3.79
22,C115A,-0.202
23,C115A A119U,-1.26
24,C115A G127A,-0.375

row,Variant,polymerase ribozyme fitness (log ratio)
1,C115A G127C,-1.67
2,C115A G127U,-2.8
3,C115A G128A U130C,-0.444
4,C115G,-1.59
5,C115G U125A,-1.66
6,C115U,-0.935
7,C115U A118U,-1.41
8,C115U G120C,-0.978
9,C115U G127C,-2.76
10,C115U U129A,-3.34
11,U116A,-2.96
12,U116A A121U,-0.72
13,U116A G120U,-1.5
14,U116A U129A,-4.24
15,U116C,-0.392
16,U116C A119G,1.96
17,U116C U129G U132C,-3.87
18,U116C U132C,-1.33
19,U116G,-1.95
20,G117A,-1.1
21,G117A A119C G120C G122A U133G,-3.42
22,G117A A119G,1.29
23,G117A A121U,1.08
24,G117A G120U,-1.9

row,Variant,polymerase ribozyme fitness (log ratio)
1,G117A U129G,-4.37
2,G117A U131A,-1.59
3,G117C,-3.16
4,G117C A121U,-3
5,G117C G127A,-6.44
6,G117C G127C,-5.04
7,G117C G135U,-3.37
8,G117C U129A,-6.61
9,G117C U131G,-4.4
10,G117U,-2.21
11,G117U C124A,-0.212
12,A118C C124G,-0.56
13,A118G C124G,-0.0684
14,A118G G122U,0.311
15,A118U G120U U133G,-0.107
16,A118U G127C,-1.35
17,A119G G120A,1.35
18,G120A C123A,-0.268
19,G120A C124A,2.09
20,G120A G127C G135U,-0.669
21,G120A G128A,-0.497
22,G120A G135A,-0.0112
23,G120A U126A U131G,0.608
24,G120A U129G,-0.391

row,Variant,polymerase ribozyme fitness (log ratio)
1,G120A U130A,0.684
2,G120C C124A,1.02
3,G120C U126A,-0.0406
4,G120C U130A,0.0796
5,G120C U132C,1.38
6,G120U U125A,0.531
7,G120U U126G U132A,-0.734
8,G120U U129G,-1.17
9,G120U U130C,0.002
10,G120U U131A,-1.19
11,A121C G122U,0.743
12,A121G G135U,0.495
13,A121G U133G,1.55
14,A121U C123U,2.27
15,A121U U130G,1.98
16,G122A C123G,1.74
17,G122A C123U,0.258
18,C123A U125G,-0.261
19,C123A U126A U130G U133G,0.742
20,C123A U130A,0.213
21,C123G G127A,-0.249
22,C123U U126A,0.0607
23,C124A U130A,1.09
24,C124G U125A U134C,0.622

row,Variant,polymerase ribozyme fitness (log ratio)
1,C124G U133A,0.826
2,C124U G127A G135U,-0.796
3,U125A U133A,-0.956
4,U125A U133C,-0.0467
5,U126A,-1.69
6,U126C,-0.485
7,U126C U132C,-1.79
8,U126G,-1.7
9,G127A G128U,-2.41
10,G127C G128U U131C,-1.37
11,G127U U130G,-0.841
12,G128A U130G,-1.43
13,G128C U131A,-1.91
14,G128U U130C,0.0266
15,U129A U132A,-1.56
16,U129G U132A,-3.7
17,U130A G135U,-0.655
18,U130A U133A,-1.4
19,U130G U132A,-1.3
20,U131A,-0.123
21,U131A U132C,0.142
22,U131C,0.237
23,U131G,-0.452
